{
  "source": "patent US20250361295A1",
  "key": {"[1]": {"biological_target": "human LILRA6 protein (human) (UniProt Q6PI73)", "sequence (Q6PI73 24-447 limits assumed)": "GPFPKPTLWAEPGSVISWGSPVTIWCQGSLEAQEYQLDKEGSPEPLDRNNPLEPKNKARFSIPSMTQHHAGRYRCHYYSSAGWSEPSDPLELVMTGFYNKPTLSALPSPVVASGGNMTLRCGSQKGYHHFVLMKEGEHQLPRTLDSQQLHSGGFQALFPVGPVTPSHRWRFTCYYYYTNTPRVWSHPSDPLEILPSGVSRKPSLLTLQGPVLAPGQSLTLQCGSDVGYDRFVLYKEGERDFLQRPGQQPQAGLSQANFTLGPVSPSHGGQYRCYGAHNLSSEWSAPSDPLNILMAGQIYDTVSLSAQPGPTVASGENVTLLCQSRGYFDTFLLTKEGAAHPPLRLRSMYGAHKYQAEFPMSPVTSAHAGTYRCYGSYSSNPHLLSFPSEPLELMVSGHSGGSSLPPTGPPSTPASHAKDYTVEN", "assay": "ELISA, LILRA6 protein"}, "human LILRB4 (human) [2]": {"biological_target": "human LILRB4 (human) (UniProt Q8NHJ6)", "sequence (Q8NHJ6 22-448)": "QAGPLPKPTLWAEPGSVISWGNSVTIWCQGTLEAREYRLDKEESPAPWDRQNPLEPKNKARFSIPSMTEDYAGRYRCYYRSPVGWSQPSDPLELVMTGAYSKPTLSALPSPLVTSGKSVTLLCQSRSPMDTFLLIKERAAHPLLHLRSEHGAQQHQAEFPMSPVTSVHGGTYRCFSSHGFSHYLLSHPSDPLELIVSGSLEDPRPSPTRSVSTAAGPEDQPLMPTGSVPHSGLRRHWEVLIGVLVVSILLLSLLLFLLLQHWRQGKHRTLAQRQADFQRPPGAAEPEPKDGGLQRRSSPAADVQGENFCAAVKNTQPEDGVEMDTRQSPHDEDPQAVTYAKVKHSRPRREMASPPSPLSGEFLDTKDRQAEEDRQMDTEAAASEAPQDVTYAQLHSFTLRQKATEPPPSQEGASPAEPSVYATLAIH", "assay": "cell-based or functional assay"}, "human LILRB4 (human) [3]": {"biological_target": "human LILRB4 (human) (UniProt Q8NHJ6)", "assay": "FACS, 293F-hLILRB4 cells"}, "[4]": {"biological_target": "cynomolgus (Macaca fascicularis) LILRB4 (cynomolgus (Macaca fascicularis))", "assay": "FACS, CHO-S-cynoLILRB4 cells"}},
  "data": [
    {"binder": "ch48-E11-H7-B5 (antibody, V domains shown) VH: EVQLVESGGGLVKPGGSLKLSCAASGFTFSSYAMSWVRQTPEKRLEWVASITIGDDTYYPDSVKGRFTISRDHAKNILYLQVSSLRSEDTAMYSCARGVNSYGSSYRYFDVWGAGTTVTVSS VL: DIVMTQSHKFMSTSVGDRVSITCKASQDVSTAVAWYQQKPGQSPKLLIYWASTRHTGVPDRFTGSGSGTDYTLTISSVQAEDLALYYCQQHYSIPFTFGAGTKLEK", "values": [
      {"measurement": "ELISA(OD450)", "setting": "[1]", "result": 0.302, "unit": "OD450"}
    ]},
    {"binder": "NGM831 (antibody, V domains shown) VH: EVQLQQSGPEVKPGASVKISCKASGYTFTDYNMDWVKQSHGKSEWIGYIYPSNGGTGYNQKFKSKATLTVDKSSNTAYMELHSLTSEDSAVYYCARVPYYDYLYYYAMDYWGQGTSVTVSS VL: QIVLSQSPAILSASPGEKVTMACRASSSVSFMHWYQQKPGSSPQPWIYATSNLASGVPARFSGSGSGTSYSLTISRVEAEDAATYYCQQWSTNPYMYTFGGGTKLEIK", "values": [
      {"measurement": "ELISA(OD450)", "setting": "[1]", "result": 1.32, "unit": "OD450"},
      {"measurement": "ADCP (%) at 133.3 nM, macrophages and MV-4-11 cells", "setting": "human LILRB4 (human) [2]", "result": 6.37, "unit": "%"},
      {"measurement": "EC50 (nM), ADCC on THP-1 cells", "setting": "human LILRB4 (human) [2]", "result": 488, "unit": "nM"},
      {"measurement": "FcγR stimulation (TNF-α, pg/mL)", "setting": "human LILRB4 (human) [2]", "result": 261, "unit": "pg/mL"},
      {"measurement": "Fold change (Compared to isotype)", "setting": "human LILRB4 (human) [2]", "result": 8.26, "unit": "fold"},
      {"measurement": "Max cell cytotoxicity (%), ADCC on THP-1 cells", "setting": "human LILRB4 (human) [2]", "result": -6.89, "unit": "%"},
      {"measurement": "EC50", "setting": "human LILRB4 (human) [3]", "result": 4.39, "unit": "nM"},
      {"measurement": "Max MFI", "setting": "human LILRB4 (human) [3]", "result": 30400, "unit": "MFI"},
      {"measurement": "Max MFI", "setting": "[4]", "result": 822, "unit": "MFI"}
    ]}
  ]
}
